Measurements as given in US20090075340A1 (Novo Nordisk, published 2009).

B1: murine IgG1 monoclonal antibody 1-26F117-A3 (antibody, V domains shown)
VH: EVQLQQSGPELVKPGASVKISCKASDYSFTGYFMNWVMQSQEKSLEWIGRINPFNGDAFYNQKFKGKATLTVDKSSNTAHMELRSLTSEDSAVYYCARLDYRGYFFDYWGQGTTLTVSS
VL: DIVMTQSQKFMSTTVGDRVSITCKASQSVGSAVGWYQQKPGQSPKLLIYSASTRYTGVPDRFTGSGSGTDFTLTITNMQSDDLADYFCHQYSRYPLSFGSGTKLEMKR
B2: murine IgG1 monoclonal antibody 1-26F117-A4 (antibody, V domains shown)
VH: QVQLKESGPGLVAPSQSLSITCTVSGFSLTDYGVSWVRQPPGKGLEWLGLIWGDGRTNYHSALISRLSISKDNSKSQVFLKLNSLQIDDTATYYCARRGAMDYWGQGTSVTVSS
VL: B1 VL

Biological target: KIR2DL1 expressed on YTS-2DL1 NK cells (human, UniProt P43626 22-348)
Experiment: cell-based or functional assay

KIR2DL1 expressed on YTS-2DL1 NK cells, sequence (P43626 other isoform, or with tags, fused parts or gaps limits assumed): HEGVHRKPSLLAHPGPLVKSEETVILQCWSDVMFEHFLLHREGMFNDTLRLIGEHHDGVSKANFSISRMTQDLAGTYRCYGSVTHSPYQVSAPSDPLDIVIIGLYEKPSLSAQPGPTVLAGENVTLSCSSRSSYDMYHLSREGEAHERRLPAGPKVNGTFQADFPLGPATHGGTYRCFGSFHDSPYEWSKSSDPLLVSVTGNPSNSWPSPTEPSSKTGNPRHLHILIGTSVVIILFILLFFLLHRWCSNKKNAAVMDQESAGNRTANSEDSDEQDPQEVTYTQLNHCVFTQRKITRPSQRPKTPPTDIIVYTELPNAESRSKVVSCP

Binder	killing of LCL 721.221-Cw4 cells by YTS-2DL1, fold over killing in the absence of mAb's [fold]
B1	3.7
B2	~2
